Assay results taken from article PMC9942874 (Immunity, 2023).
Where a chain is given by its changes, count along the chain named.

B1: RUPA-115 (antibody, V domains shown)
VH: EVQLVESGGGLVQPGRSLRLFCAASGFNFDDYAMHWVRQAPGKGLEWVSGISWNSGTLAYADFVMGRFTISRDTAKNSLYLQMNSLRAEDTAFYYCAKDLKKYISSSLDYWGQGTLVTVFS
VL: QSALTQPRSVSGSPGQSVTISCTGTSSDVGAYNFVSWFQHHPGKAPKLMIYDVTKRPSGVPDRFSASKSGNTASLTISGLQAEDEAEYYCCSYAGTYHVVFGGGTKLTVL
notes: also called RUPA-115 (IgG1)
B2: RUPA-96 (antibody, V domains shown)
VH: B1 VH with F21S, A24V, N28T, D31N, M83L, A88T, F93L, L100I, K102M
VL: B1 VL with I20V, S26N, M49I, V53I
notes: also called RUPA-96 (IgG1)
B3: RUPA-38 (antibody, V domains shown)
VH: EVQLVESGGGLVQPGRSLRLSCAVSGFNFEDYAMHWVRQTPGKGLEWVSGISWNSGTLAYGDFVQGRFIISRDNAKNFLYLQMNSLRPEDTALYYCANDRMRWIQVPHYWGQGTLVTVSS
VL: B1 VL with Q1L, S26N, S27D, A31E, F34Y, F38Y, H40Q, E87N, V99M
notes: also called RUPA-38 (IgG1)
B4: RUPA-62 (antibody, V domains shown)
VH: EVQLVESGGGLVQPGRSLRLSCAASGFTFDDYAMHWVRQAPGKGLEWVSGISWNSGSIGYADSVNGRFTISRDNAKKSLYLQMNSLRPEDTALYYCAKDTHEYSSSPGDYWGQGTLVTVSS
VL: B1 VL with A31G, N33T, F38S, H40Q, T54S, A66G, E87D
notes: also called RUPA-62 (IgG1)
B5: RUPA-73 (antibody, V domains shown)
VH: EPQLVESGGGLVQPGRSLRLSCAGSGFTFGDYAMHWVRQAPGKGLEWVSGISWNSGTLAYAVFVEGRFTISRDNAKNSLYLQMNSLRPEDTAFYYCAKDVKNYVSGGCSDWGQGSLVTVSS
VL: B1 VL with A31G, N33E, F38Y, H40Q, H41Y, M49I, D62A, R63H, E87D, V100L
notes: also called RUPA-73 (IgG1)
B6: RUPA-103 (antibody, V domains shown)
VH: EVQLVESGGGLVKPGGSLRLSCAASGFTFSSYSMNWVRQAPGKGLEWVSSISSGSSYKYYSDSVKGRFTISRDNAKNSLYLQMNTLRAEDTAVYYCARAPEPGLLWFGEWGDYWGQGTLVTVSS
VL: EIVLTQSPVTLSLSPGERATLSCRASQSISSSLAWYQQKPGQAPRLLIYDASNRATGIPARFSGSGSGTDFTLTISSLEPEDFAVYYCQQRSIWPPITFGQGTRLEIQ
notes: also called RUPA-103 (IgG1)
B7: RUPA-32 (antibody, V domains shown)
VH: EVQLVESGGGLVKPGGSLRLSCAASGFAFSTYAMSWVRQAPGKGLEWVSSISESSSYTYYTDSVKGRFTISRDNAKKSLFLHMNSLRAEDTAVYYCARSDGLSMIAAPFDYWGQGARVTVSS
VL: EIVLTQSPATLSLSPGERATLSCRTSQSLSISLVWYQQKPGQAPRLLISDASNRAPGIPARFSASGSGTDFTLTISSLEPEDFAVYYCQQRSNWPPITFGQGTRLEMK
notes: also called RUPA-32 (IgG1)
B8: RUPA-137 (antibody, V domains shown)
VH: QITLKESGPALVKPTQTLTLTCTFSGFSLTSSGVGVVWVRQPPEKALEWLALIYWDDDRRYSPSLETRLNISKDTSKNQVVLTMTNMDPLDTATYFCAHSRASGWYGYWGQGTLVTVSS
VL: QSVLTQPPSASGTPGQRVTISCSGSRSNLGTNFVYWYQQLPGTAPKLLIYKNYQRPSGVPDRFSGSKSGTSASLSISGLRSEDEADYYCAAWDDNLNGFYVFGTGTKLTVV
notes: also called RUPA-137 (IgG1)
B9: RUPA-136 (antibody, V domains shown)
VH: EVQLVESGGGLVRPGGSLRLSCAASGFNFSAYGMNWVRQAPGRGLEWISYISHNTSIIHYADSVKGRFTISRDNGANSLYLQLNTLRDGDTAVYYCVRDCATLIGGRLPICQYFFDYWGQGALVTVSS
VL: SYELTQPSSVSVSLGQTASITCSGDMLTGKYVRWFQQKPGQAPILVIYKDRKRPSGIPDRFSGSSSGTTVTLIINGARIEDEADYYCYSAAARKRVFGGGTKLTVL
notes: also called RUPA-136 (IgG1)
B10: 15C5 (IgG1) (antibody, V domains shown)
VH: DVQLQESGPGLVNPSQSLSLTCSVTGYSITSDYYWNWIRQFPGNKLEWMGYITYDGTNNYNPFFKNRISITRDTSQNQFFLKLNSVTTEDTATYYCARDGRYWYFDVWGAGTTVTVSS
VL: QIVLTQSPTLMSAFPGEKVTMTCSASSSVSYMYWYQQKPGSSPKPWIYLTSNLASGVPARFSGSGSGTSYSLTISSMEAEDAATYYCQQWNNSPPTFGAGTKLELK
notes: also called humanized analog of the 15C5 mouse mAb
B11: RUPA-135 (antibody, V domains shown)
VH: EVQLVDSGGGLVQPGGSLKLTCATSGFFFSGSAMHWVRQASGKGLEWVGRIRSKGNNYATAYAASVKGRFTISRDDSKNTAYLQMDSLKTEDTAVYYCSSRNSKVPDYWGQGTLVTVSS
VL: QSVLTQPPSASGTPGQRVTIFCSGSSSNIGSNFVYWYQQLPGAAPKLLIYRNHQRPSGVPDRLSGSKSGTSASLAISGLRSEDEADYYCAAWDDSLNVQVFGGGTKVTVL
notes: also called RUPA-135 (IgG1)
B12: RUPA-33 (antibody, V domains shown)
VH: EVQLVESGGGLVQPGRSLRLSCAASGFTFDDYAVHWVRQVPGKGLEWVSGISWNSATLAYADSVTGRFTISRDNARNSLYLQMNSLRIEDTALYYCARALPERTYGHRAFDYWGRGTQVTVSS
VL: QSALTQPRSVSGSPGQSVTISCTGTSSDVGYFTFVSWYQQHPGEVPKLIIYDVTKRPSGVPDRFSGSKSGNTASLTISGLQSDDEADYYCCSYAGTYHIRFGGGTKLTVL
notes: also called RUPA-33 (IgG1)
B13: RUPA-39 (antibody, V domains shown)
VH: DVQLVESGGGLVKPGGSLRLSCAASGFTFSSYTMNWVRQAPGKGLEWVSSISTNIRYIYYADSVKGRFTISRDNAKNSLFLQMDSLRAEDTAVYYCATIAGPLSLKGDFYFDSWGQGTLVTVSS
VL: EIVMTQSPATLSVSPGERATLSCRASQSVSSSLAWYQQKPGQAPRLLIHGASTRATGIPTRFSGSGSGTEFTLTISSLQSEDFAVYYCQQYANWPPWTFGQGTKVESK
notes: also called RUPA-39 (IgG1)
B14: RUPA-55 (antibody, V domains shown)
VH: B13 VH with S30N, Y110F, S124P
VL: B13 VL
notes: also called RUPA-55 (IgG1)
B15: RUPA-126 (antibody, V domains shown)
VH: QVQLVQSGAEVKKPGASVTVSCKASGYTFTDYYLHWVRQAPGHGLEWMGWINPNSGITEYAQKFQGRVTVTRDTSISTIYMDLSRLRSDDTAIYYCVRRERGSPYTLFDYWGQGTLVIVSS
VL: QSVLTQPPSASGTPGQRVTISCSGGDSNIGTNYGYWYQQFPGTAPKLLIYWNNRRPSGVPDRFSGSKSGTSVFLAISGLRSEDEADYYCAAWDDSLSAPVFGGGTKLTVI
notes: also called RUPA-126 (IgG1)
B16: RUPA-133 (antibody, V domains shown)
VH: QVQLVQSGAEVKKPGASVNVSCMPSGYTFSDYFLHWVRQAPGQGLEWMGWINPNSGLTKYAQKFQGRVTMTSDTSISTVYLDLSRLRSDDTAIYFCVRRERGSPYTLFDYWGQGTLVTVSS
VL: B15 VL with D26A, G34V, F40L, F73S, A98G
notes: also called RUPA-133 (IgG1)

Experiments:
[1] = biological target: T1, Pfs230 C1 (Plasmodium falciparum 3D7 (clone of …, UniProt P68874)); assay: ELISA; details: both partners purified
[2] = biological target: native Pfs230 (gametocyte extract) (Plasmodium falciparum NF54 (3D7 is its …, UniProt P68874)); assay: […]; 5 μg/ml mAb in PBST; […]; details: one partner purified
[3] = biological target: Pfs230 Pro (Plasmodium falciparum 3D7 (clone of …, UniProt P68874)); assay: ELISA; details: both partners purified
[4] = biological target: T1, Pfs230 C1; assay: SPR; details: both partners purified

T1 sequence (P68874 443-731): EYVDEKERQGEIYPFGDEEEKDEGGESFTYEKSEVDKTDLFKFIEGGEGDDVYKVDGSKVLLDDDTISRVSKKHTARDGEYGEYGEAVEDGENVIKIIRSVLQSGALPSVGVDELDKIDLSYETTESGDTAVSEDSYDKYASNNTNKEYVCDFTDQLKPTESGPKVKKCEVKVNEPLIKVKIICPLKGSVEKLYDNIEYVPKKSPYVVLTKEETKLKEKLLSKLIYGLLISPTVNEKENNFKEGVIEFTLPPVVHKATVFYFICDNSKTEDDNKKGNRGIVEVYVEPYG
Sequence of Pfs230 Pro (Plasmodium falciparum 3D7 (P68874 443-590): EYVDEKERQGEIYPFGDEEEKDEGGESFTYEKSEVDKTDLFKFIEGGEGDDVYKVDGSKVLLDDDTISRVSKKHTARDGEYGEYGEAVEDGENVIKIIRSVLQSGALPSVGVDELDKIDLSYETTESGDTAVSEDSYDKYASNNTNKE
Sequence of native Pfs230 (gametocyte extract) (Plasmodium falciparum NF54 (P68874 21-3135): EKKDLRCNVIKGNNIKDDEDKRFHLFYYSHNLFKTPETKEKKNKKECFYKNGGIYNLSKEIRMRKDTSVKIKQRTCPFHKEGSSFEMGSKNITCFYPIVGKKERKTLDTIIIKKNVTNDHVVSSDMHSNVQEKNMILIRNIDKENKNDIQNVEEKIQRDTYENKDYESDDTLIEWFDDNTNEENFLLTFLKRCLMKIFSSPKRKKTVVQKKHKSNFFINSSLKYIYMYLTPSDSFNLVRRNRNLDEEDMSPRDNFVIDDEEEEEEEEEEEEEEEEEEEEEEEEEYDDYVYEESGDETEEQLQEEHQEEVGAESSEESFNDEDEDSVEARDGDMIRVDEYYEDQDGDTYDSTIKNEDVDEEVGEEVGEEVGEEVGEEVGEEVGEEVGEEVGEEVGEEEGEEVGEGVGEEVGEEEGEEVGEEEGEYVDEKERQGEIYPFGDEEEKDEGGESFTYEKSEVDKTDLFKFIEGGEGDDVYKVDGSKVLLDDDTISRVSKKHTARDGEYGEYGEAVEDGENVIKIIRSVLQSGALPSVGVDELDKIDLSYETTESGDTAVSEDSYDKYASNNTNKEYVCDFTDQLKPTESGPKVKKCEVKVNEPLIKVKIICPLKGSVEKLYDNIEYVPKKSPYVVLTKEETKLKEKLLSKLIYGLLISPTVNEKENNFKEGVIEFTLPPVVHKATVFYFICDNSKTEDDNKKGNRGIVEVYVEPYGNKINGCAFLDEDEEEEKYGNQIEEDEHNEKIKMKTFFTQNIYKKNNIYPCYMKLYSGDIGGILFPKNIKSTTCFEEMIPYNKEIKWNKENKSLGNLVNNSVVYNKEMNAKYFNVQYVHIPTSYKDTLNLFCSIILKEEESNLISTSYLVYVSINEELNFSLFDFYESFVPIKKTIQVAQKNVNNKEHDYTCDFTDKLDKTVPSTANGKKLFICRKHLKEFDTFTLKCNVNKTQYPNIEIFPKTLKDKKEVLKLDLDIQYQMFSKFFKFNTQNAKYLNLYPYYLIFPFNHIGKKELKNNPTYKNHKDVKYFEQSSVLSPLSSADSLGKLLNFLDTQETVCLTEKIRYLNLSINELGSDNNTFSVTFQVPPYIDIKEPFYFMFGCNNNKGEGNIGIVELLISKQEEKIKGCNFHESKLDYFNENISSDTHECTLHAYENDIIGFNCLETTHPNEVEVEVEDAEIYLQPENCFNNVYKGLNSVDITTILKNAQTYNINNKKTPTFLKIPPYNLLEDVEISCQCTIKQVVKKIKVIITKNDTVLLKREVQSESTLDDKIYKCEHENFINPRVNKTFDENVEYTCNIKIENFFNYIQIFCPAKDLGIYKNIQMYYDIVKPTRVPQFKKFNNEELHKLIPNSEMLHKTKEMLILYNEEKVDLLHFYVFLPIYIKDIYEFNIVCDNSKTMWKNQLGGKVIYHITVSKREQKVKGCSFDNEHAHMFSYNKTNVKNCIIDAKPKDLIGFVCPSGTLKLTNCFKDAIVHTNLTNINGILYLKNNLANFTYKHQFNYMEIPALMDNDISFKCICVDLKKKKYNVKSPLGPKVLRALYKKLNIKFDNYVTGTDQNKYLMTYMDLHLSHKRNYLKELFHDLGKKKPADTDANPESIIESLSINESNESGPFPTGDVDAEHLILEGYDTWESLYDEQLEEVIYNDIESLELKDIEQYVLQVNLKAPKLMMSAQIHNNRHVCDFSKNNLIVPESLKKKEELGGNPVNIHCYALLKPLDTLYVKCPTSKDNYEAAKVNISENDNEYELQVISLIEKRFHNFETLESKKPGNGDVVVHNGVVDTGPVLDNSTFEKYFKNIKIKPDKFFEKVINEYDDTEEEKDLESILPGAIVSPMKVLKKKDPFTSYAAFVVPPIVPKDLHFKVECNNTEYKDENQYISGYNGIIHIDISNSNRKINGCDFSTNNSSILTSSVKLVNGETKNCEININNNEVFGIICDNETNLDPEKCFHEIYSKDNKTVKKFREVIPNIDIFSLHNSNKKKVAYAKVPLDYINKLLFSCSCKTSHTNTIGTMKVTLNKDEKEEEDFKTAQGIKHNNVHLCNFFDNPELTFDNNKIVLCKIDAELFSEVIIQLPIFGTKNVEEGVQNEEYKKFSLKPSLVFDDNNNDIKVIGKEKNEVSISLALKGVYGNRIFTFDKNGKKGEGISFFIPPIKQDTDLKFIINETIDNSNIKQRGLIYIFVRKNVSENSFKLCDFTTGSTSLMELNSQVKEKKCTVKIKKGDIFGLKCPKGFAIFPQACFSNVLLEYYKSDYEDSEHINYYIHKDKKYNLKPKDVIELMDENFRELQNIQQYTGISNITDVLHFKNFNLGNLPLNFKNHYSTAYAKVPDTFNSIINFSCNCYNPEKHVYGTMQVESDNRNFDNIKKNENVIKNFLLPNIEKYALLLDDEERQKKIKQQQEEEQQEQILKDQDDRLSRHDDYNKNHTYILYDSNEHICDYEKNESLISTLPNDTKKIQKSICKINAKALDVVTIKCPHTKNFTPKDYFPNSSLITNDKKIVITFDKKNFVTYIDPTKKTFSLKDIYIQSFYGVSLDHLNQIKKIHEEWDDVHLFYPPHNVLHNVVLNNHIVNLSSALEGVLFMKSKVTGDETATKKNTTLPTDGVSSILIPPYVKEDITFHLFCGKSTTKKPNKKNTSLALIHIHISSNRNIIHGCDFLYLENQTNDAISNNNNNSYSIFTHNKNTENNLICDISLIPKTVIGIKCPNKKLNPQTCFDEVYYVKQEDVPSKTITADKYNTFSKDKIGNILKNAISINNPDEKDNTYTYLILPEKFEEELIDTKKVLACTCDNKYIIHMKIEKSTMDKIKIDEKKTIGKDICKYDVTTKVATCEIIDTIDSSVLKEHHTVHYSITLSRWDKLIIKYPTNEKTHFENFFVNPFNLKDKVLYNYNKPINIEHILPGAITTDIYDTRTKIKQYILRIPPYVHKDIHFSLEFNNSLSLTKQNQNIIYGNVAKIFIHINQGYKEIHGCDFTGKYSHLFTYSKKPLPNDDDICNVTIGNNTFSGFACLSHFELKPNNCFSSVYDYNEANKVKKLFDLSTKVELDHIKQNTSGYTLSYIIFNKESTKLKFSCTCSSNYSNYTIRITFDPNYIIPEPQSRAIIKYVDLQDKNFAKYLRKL

Row | Binder | binding result [1] | binding result [2] | binding result [3] | binding result [4]
1 | B1 | binds | binds | – | –
2 | B2 | binds | binds | – | –
3 | B3 | binds | binds | – | –
4 | B4 | binds | binds | – | –
5 | B5 | binds | binds | – | –
6 | B6 | binds | binds | – | –
7 | B7 | binds | binds | – | –
8 | B8 | binds | – | binds | –
9 | B9 | binds | – | binds | –
10 | B10 | – | – | – | binds
11 | B11 | binds | – | binds | –
12 | B12 | binds | binds | – | –
13 | B13 | binds | binds | – | –
14 | B14 | binds | binds | – | –
15 | B15 | binds | binds | – | –
16 | B16 | binds | binds | – | –
